Test results taken from patent US20250114463A1, “LIVER-TARGETED DRUG AND USE THEREOF” (HANMI PHARM. CO., LTD., priority 2021, published 2025).
Bridges are numbered along the chain shown (N, C = ends). Where no end group is shown, it is not given here. [ ]: non-standard residue; d: D form. Aib = CC(C)(N)C(=O)O

T1: human GIP receptor (human, UniProt P48546 22-466)
T1 sequence (looked up): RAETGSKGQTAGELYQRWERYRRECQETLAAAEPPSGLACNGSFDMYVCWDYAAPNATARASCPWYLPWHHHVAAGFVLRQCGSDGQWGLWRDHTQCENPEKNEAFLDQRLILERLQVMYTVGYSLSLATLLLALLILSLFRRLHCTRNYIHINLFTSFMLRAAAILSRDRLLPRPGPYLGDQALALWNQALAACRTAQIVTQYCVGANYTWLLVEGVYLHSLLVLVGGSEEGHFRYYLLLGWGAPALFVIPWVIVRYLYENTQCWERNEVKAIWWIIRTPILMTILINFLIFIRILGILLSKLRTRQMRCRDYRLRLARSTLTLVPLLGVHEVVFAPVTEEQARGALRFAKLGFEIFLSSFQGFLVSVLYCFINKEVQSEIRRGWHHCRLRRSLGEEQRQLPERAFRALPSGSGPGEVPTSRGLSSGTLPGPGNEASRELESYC

B1: triple agonist of SEQ ID NO: 33 (peptide)
peptide: H[Aib]QGTFTSDYSIAMDEIHQKDFVNWLLAQKC
modifications: bridge 16-20; not fully specified (C-terminus)
B2: triple agonist of SEQ ID NO: 29 (peptide)
peptide: H[Aib]QGTFTSDYSKYLDEKAAKEFVQWLLNTC
modifications: bridge 16-20; not fully specified (C-terminus)
B3: triple agonist of SEQ ID NO: 28 (peptide)
peptide: H[Aib]QGTFTSDYSKYLDEKRAQEFVCWLLAQKGKKNDWKHNIT-NH2
B4: triple agonist of SEQ ID NO: 32 (peptide)
peptide: H[Aib]QGTFTSDYSKYLDEKACKDFVQWLLDGGPSSGAPPPS
modifications: bridge 16-20; not fully specified (C-terminus)
B5: triple agonist of SEQ ID NO: 27 (peptide)
peptide: HXQGTFTSDYSKYLDERACQDFVQWLLDQGGPSSGAPPPS
HELM: PEPTIDE1{H.[Aib].Q.G.T.F.T.S.D.Y.S.K.Y.L.D.E.R.A.C.Q.D.F.V.Q.W.L.L.D.Q.G.G.P.S.S.G.A.P.P.P.S.[am]}$$$$V2.0; N-terminus assumed
SMILES: CC(C)C[C@H](NC(=O)[C@H](CC(C)C)NC(=O)[C@H](Cc1c[nH]c2ccccc12)NC(=O)[C@H](CCC(N)=O)NC(=O)[C@@H](NC(=O)[C@H](Cc1ccccc1)NC(=O)[C@H](CC(=O)O)NC(=O)[C@H](CCC(N)=O)NC(=O)[C@H](CS)NC(=O)[C@H](C)NC(=O)[C@H](CCCNC(=N)N)NC(=O)[C@H](CCC(=O)O)NC(=O)[C@H](CC(=O)O)NC(=O)[C@H](CC(C)C)NC(=O)[C@H](Cc1ccc(O)cc1)NC(=O)[C@H](CCCCN)NC(=O)[C@H](CO)NC(=O)[C@H](Cc1ccc(O)cc1)NC(=O)[C@H](CC(=O)O)NC(=O)[C@H](CO)NC(=O)[C@@H](NC(=O)[C@H](Cc1ccccc1)NC(=O)[C@@H](NC(=O)CNC(=O)[C@H](CCC(N)=O)NC(=O)C(C)(C)NC(=O)[C@@H](N)Cc1c[nH]cn1)[C@@H](C)O)[C@@H](C)O)C(C)C)C(=O)N[C@@H](CC(=O)O)C(=O)N[C@@H](CCC(N)=O)C(=O)NCC(=O)NCC(=O)N1CCC[C@H]1C(=O)N[C@@H](CO)C(=O)N[C@@H](CO)C(=O)NCC(=O)N[C@@H](C)C(=O)N1CCC[C@H]1C(=O)N1CCC[C@H]1C(=O)N1CCC[C@H]1C(=O)N[C@@H](CO)C(N)=O
B6: triple agonist of SEQ ID NO: 31 (peptide)
peptide: H[Aib]QGTFTSDYSKYLDEKACKEFVQWLLAQ
modifications: bridge 16-20; not fully specified (C-terminus)
B7: triple agonist of SEQ ID NO: 30 (peptide)
peptide: H[Aib]QGTFTSDYSKYLDEKAQKEFVQWLLDTC
modifications: bridge 16-20; not fully specified (C-terminus)

How the values were obtained:
Assay in all cases: cell-based or functional assay
human GLP-1 receptor = human GLP-1 receptor (human, UniProt P43220 24-463)
human GIP receptor = molecular target: T1, human GIP receptor
human GCG receptor = human GCG receptor (human, UniProt P47871 26-477)
Chain of human GCG receptor (P47871 26-477): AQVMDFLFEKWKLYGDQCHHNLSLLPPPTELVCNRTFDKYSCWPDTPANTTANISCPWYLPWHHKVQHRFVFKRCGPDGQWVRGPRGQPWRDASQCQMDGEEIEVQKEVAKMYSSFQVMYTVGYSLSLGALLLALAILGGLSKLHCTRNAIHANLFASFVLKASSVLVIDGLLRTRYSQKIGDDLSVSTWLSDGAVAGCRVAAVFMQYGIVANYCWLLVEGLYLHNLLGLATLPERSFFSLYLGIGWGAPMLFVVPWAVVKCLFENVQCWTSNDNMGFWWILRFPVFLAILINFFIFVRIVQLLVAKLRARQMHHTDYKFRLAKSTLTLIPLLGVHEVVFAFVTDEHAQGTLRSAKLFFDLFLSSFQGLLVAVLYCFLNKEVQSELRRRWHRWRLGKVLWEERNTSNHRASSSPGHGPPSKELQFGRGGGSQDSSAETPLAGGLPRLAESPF

| Binder | in vitro Activity Compared to Native Peptide (%), vs GLP-1 (human GLP-1 receptor) | in vitro Activity Compared to Native Peptide (%), vs GIP (human GIP receptor) | in vitro Activity Compared to Native Peptide (%), vs Glucagon (human GCG receptor) |
| --- | --- | --- | --- |
| B1 | 24.5% | 10.4% | < 0.1% |
| B2 | 38.5% | < 0.1% | 6% |
| B3 | 17.2% | < 0.1% | 1.6% |
| B4 | 151% | 8.8% | 1.7% |
| B5 | 83.1% | 0.9% | 0.8% |
| B6 | 135% | 2.4% | 2.2% |
| B7 | 142% | 0.8% | 0.7% |
